Test results as given in PMC6358683 (Proceedings of the National Academy of Sciences of the …, 2019).

What was measured:
[1] = molecular target: HA of A/Solomon Islands/03/2006 (Influenza A virus A/Solomon …, UniProt A7Y8I1, strain); assay: ELISA
[2] = molecular target: HA of A/Thailand/CU44/2006 (Influenza A virus A/Thailand/CU44/2006 …, UniProt A7LI25, strain); assay: ELISA

| Binder | binding result [1] | binding result [2] |
| --- | --- | --- |
| C05 V110P (antibody, V domains shown) VH: QVQLQESGGGLVQPGESLRLSCVGSGSSFGESTLSYYAVSWVRQAPGKGLEWLSIINAGGGDIDYADSVEGRFTISRDNSKETLYLQMTNLRVEDTGVYYCAKHMSMQQVPSAGWERADLVGDAFDVWGQGTMVTVSS VL: DIQLTQSPSSLSASVGDRVTLTCQASQDIRKFLNWYQQKPGKGPKLLIYDASNLQRGVPSRFSGGGSGTDFTLIISSLQPEDVGTYYCQQYDGLPFTFGGGTKVVIK | binds | binds |
| C05 V110P-A117E (antibody, V domains shown) VH: QVQLQESGGGLVQPGESLRLSCVGSGSSFGESTLSYYAVSWVRQAPGKGLEWLSIINAGGGDIDYADSVEGRFTISRDNSKETLYLQMTNLRVEDTGVYYCAKHMSMQQVPSAGWEREDLVGDAFDVWGQGTMVTVSS VL: DIQLTQSPSSLSASVGDRVTLTCQASQDIRKFLNWYQQKPGKGPKLLIYDASNLQRGVPSRFSGGGSGTDFTLIISSLQPEDVGTYYCQQYDGLPFTFGGGTKVVIK | binds | binds |
| C05 A117E (antibody, V domains shown) VH: QVQLQESGGGLVQPGESLRLSCVGSGSSFGESTLSYYAVSWVRQAPGKGLEWLSIINAGGGDIDYADSVEGRFTISRDNSKETLYLQMTNLRVEDTGVYYCAKHMSMQQVVSAGWEREDLVGDAFDVWGQGTMVTVSS VL: DIQLTQSPSSLSASVGDRVTLTCQASQDIRKFLNWYQQKPGKGPKLLIYDASNLQRGVPSRFSGGGSGTDFTLIISSLQPEDVGTYYCQQYDGLPFTFGGGTKVVIK | binds | binds |
